Laboratory results reported in the supplement of paper PMC10126150.
± gives the standard deviation of the averaged measurements.
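Note: ATP exposure 15 min at 22 °C before imaging.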

Each sequence was assayed on ATP (assay: switch fluorescence ratio, 500 uM ATP over buffer (Cy3 cluster intensity, sum of 5 cycles each) (fold (ratio)); higher = stronger signal-on switching upon ATP binding; sequences stand for … in TCGTCGGCAGCGTCAGATGTGTATAAGAGACAGTTTTTTTTTTTTTTTTTTTTTTTTT…TC). Settings: aptamer strand: ATP DNA aptamer (quencher-CACCTGGGGGAGTATTGCGGAGGAAGG + anchor), 100 nM annealed; ATP concentration: 500 uM.
Outline: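 Between each of five buffer/ATP cycles, the flow-cell was stripped with NaOH and re-annealed. Each cycle imaged Cy3-labelled switching-strand clusters, annealed to 100 nM quencher-labelled ATP aptamer on a modified Illumina MiSeq flow-cell, first in selection buffer and then after 15 min with 500 uM ATP at 22 °C. The fluorescence ratio is summed target-cycle over summed buffer-cycle Cy3 intensity per cluster, averaged per switch-domain sequence, with clusters outside 100-1000 RFU excluded.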
In the case of TTTCGTTGCT, the switch fluorescence ratio is reported as 0.994 ± 0.018. TTTTTTAGCC was tested, and the switch fluorescence ratio was 1.02 ± 0.091. For TTTAAAGAGT, the switch fluorescence ratio was 0.972 ± 0.022. GACGTTTAAG was tested, and the switch fluorescence ratio was 0.977 ± 0.029. AAGGGGAATA was tested, and the switch fluorescence ratio was 1.01 ± 0.035. TAGATGGTTT showed a switch fluorescence ratio of 0.97 ± 0.036. ACTGGCATCC gave a switch fluorescence ratio of 1.08 ± 0.029. For TCTTTAAGGT, the switch fluorescence ratio was 1.04 ± 0.023. Sequence TTATTGGGGC has a switch fluorescence ratio of 1.01 ± 0.03. TATGTTATAT was tested, and the switch fluorescence ratio was 0.991 ± 0.029. AAAGGAGGGG showed a switch fluorescence ratio of 0.983 ± 0.02. With AGTGATTCGT the switch fluorescence ratio was 1.01 ± 0.038. Sequence AGCGGTTGGG has a switch fluorescence ratio of 0.9966 ± 0.0071. TCGAGTTG was tested, and the switch fluorescence ratio was 0.9972 ± 0.0093. Work on TGTGTTACTT yielded a switch fluorescence ratio of 0.9988 ± 0.001. For GAGTTCCTGT, the switch fluorescence ratio was 1.01 ± 0.014. With TTGCTCCCAC the switch fluorescence ratio was 1.62 ± 0.81. ACTTGTTATG was tested, and the switch fluorescence ratio was 0.996 ± 0.028. In the case of CCAGGACTGC, the switch fluorescence ratio is reported as 0.972 ± 0.036. ACGGGGGTCC showed a switch fluorescence ratio of 1.02 ± 0.025. Sequence CGTTTGTGCA has a switch fluorescence ratio of 0.98971 ± 6.6e-05. Sequence ATTAGGACGT has a switch fluorescence ratio of 0.984 ± 0.032. GGGACTTTTG gave a switch fluorescence ratio of 0.986 ± 0.15. ATATATGAGG gave a switch fluorescence ratio of 0.974 ± 0.03. TGATTCGTAC showed a switch fluorescence ratio of 1.03 ± 0.028. Work on TTTTTCCCGG yielded a switch fluorescence ratio of 1.17 ± 0.23. Work on TCGGTTTAGG yielded a switch fluorescence ratio of 1.011 ± 0.0076. With AAACTTAATG the switch fluorescence ratio was 1.05 ± 0.061. Sequence TGGAATTACT has a switch fluorescence ratio of 1.26 ± 0.36. TTATTGCTGT was tested, and the switch fluorescence ratio was 0.989 ± 0.013. In the case of TATTATGCGA, the switch fluorescence ratio is reported as 1.04 ± 0.022. Sequence AGATACATAT has a switch fluorescence ratio of 1.05 ± 0.0056. CAGGAGAAGG showed a switch fluorescence ratio of 1.05 ± 0.022. Sequence AGAGGCGGGA has a switch fluorescence ratio of 0.956 ± 0.11. AGTTTGGTTC was tested, and the switch fluorescence ratio was 0.9876 ± 0.0078. Work on TAGGACGCGG yielded a switch fluorescence ratio of 1.04 ± 0.052. TTCGAGCTAA was tested, and the switch fluorescence ratio was 1.2 ± 0.26. Sequence GGGTTAAGTA has a switch fluorescence ratio of 0.993 ± 0.031. In the case of TAGCGATGCG, the switch fluorescence ratio is reported as 1.031 ± 0.0042. For TATTTCGGTT, the switch fluorescence ratio was 1.002 ± 0.0096. With AGACCGAGAC the switch fluorescence ratio was 1.18 ± 0.079. TTTTGGAGCC gave a switch fluorescence ratio of 1.06 ± 0.046. With TTCGTGTAAG the switch fluorescence ratio was 1.02 ± 0.015. Work on CGCTTTTGCT yielded a switch fluorescence ratio of 0.969 ± 0.029. With AAGCAATGGG the switch fluorescence ratio was 1.45 ± 0.037. In the case of ATAGTTATGG, the switch fluorescence ratio is reported as 0.992 ± 0.011. TTTTCTCCGT showed a switch fluorescence ratio of 1.3 ± 0.43. With AGGCACTTTT the switch fluorescence ratio was 1.04 ± 0.015. Work on TTTTACTGAG yielded a switch fluorescence ratio of 1.04 ± 0.025. In the case of TGGGGGAAGA, the switch fluorescence ratio is reported as 1.03 ± 0.069. With AAATTTACAG the switch fluorescence ratio was 1.03 ± 0.04. With TGTGAAGTTG the switch fluorescence ratio was 1.008 ± 0.0027. GCTATGGGAT was tested, and the switch fluorescence ratio was 0.995 ± 0.04. AAGAGCTTTG gave a switch fluorescence ratio of 0.99 ± 0.013. ACTATGCTTT gave a switch fluorescence ratio of 1.021 ± 0.0059. In the case of GCAATAGTGG, the switch fluorescence ratio is reported as 1.25 ± 0.025. For TTCATCCAGC, the switch fluorescence ratio was 1.13 ± 0.07. AAACTGACGG gave a switch fluorescence ratio of 1.37 ± 0.016. ATCTGGAACG gave a switch fluorescence ratio of 0.988 ± 0.02. TTTGCTGAAA gave a switch fluorescence ratio of 0.964 ± 0.026. AAGTTTTGGC showed a switch fluorescence ratio of 1 ± 0.035. Sequence TTAATGTTGT has a switch fluorescence ratio of 1 ± 0.035. For GAGTGGCACC, the switch fluorescence ratio was 1.04 ± 0.042. For TAACATAATT, the switch fluorescence ratio was 1 ± 0.023. Work on TCGGGAGAAT yielded a switch fluorescence ratio of 1.01 ± 0.015. AAAAAAGGAT was tested, and the switch fluorescence ratio was 1.024 ± 0.0086. Sequence CACAAAAGTG has a switch fluorescence ratio of 1.02 ± 0.02. In the case of ACGTGCCGGT, the switch fluorescence ratio is reported as 0.99 ± 0.05. TTTGCCCCTG was tested, and the switch fluorescence ratio was 1.03 ± 0.021. Sequence CATAGTTCGT has a switch fluorescence ratio of 0.988 ± 0.016. Work on TAAGAAATGT yielded a switch fluorescence ratio of 1.04 ± 0.04. With TCGGTAGTGG the switch fluorescence ratio was 1 ± 0.028. Sequence AGATATGAGA has a switch fluorescence ratio of 1.031 ± 0.0075. For ACAATGGGTA, the switch fluorescence ratio was 1.03 ± 0.024. With TTATACATGG the switch fluorescence ratio was 1.07 ± 0.0024. With CGGGGGGTTC the switch fluorescence ratio was 1 ± 0.019. For ATGTGTCTAT, the switch fluorescence ratio was 0.998 ± 0.036. Work on TTCAAGGTGC yielded a switch fluorescence ratio of 1.4 ± 0.069. Sequence AGCCCGCCGG has a switch fluorescence ratio of 1.03 ± 0.031. For AGGGTATTTG, the switch fluorescence ratio was 0.987 ± 0.011. TTTTTTTTTT showed a switch fluorescence ratio of 1.01 ± 0.083. TTGAGCCCCG gave a switch fluorescence ratio of 0.951 ± 0.047. TACATTCGTC gave a switch fluorescence ratio of 1.07 ± 0.075. TGATTCGGCG showed a switch fluorescence ratio of 1.03 ± 0.069. In the case of CAATATGTGC, the switch fluorescence ratio is reported as 1.009 ± 0.004. ATTTACGGCA showed a switch fluorescence ratio of 1.11 ± 0.021. With AATGGGGTTA the switch fluorescence ratio was 0.997 ± 0.023. For CGCCTCATTT, the switch fluorescence ratio was 1 ± 0.03. Work on TTTAAAGACC yielded a switch fluorescence ratio of 0.993 ± 0.022. For AAAGTGTTCG, the switch fluorescence ratio was 0.9797 ± 0.0097. GGGAATGTTA showed a switch fluorescence ratio of 0.9902 ± 0.007. CGGGGTCGTG was tested, and the switch fluorescence ratio was 0.9904 ± 0.0035. Work on TGGAGAAAGT yielded a switch fluorescence ratio of 1.03 ± 0.067. TTAAAACCTT gave a switch fluorescence ratio of 1.56 ± 0.46. TGTCCCACAA was tested, and the switch fluorescence ratio was 0.999 ± 0.035. GTTATAACCG showed a switch fluorescence ratio of 0.993 ± 0.024. With TATAGGCTTT the switch fluorescence ratio was 0.97 ± 0.024. Sequence ATCTTGATTG has a switch fluorescence ratio of 1.03 ± 0.016. GGTGTAGGCG showed a switch fluorescence ratio of 0.969 ± 0.039. For CACCGGAAAA, the switch fluorescence ratio was 1.09 ± 0.094. Sequence TATAAGCTAG has a switch fluorescence ratio of 1.03 ± 0.017. TACTTTATTT was tested, and the switch fluorescence ratio was 1.16 ± 0.21. For TGAGTAAAGC, the switch fluorescence ratio was 1.03 ± 0.062. For TAGTTTGATG, the switch fluorescence ratio was 0.986 ± 0.017. In the case of GCGCTGTCCG, the switch fluorescence ratio is reported as 0.9959 ± 0.0087. GATGCGCCGG was tested, and the switch fluorescence ratio was 1.03 ± 0.034. GGGGTTGGTT showed a switch fluorescence ratio of 0.995 ± 0.044. With AAAATCAGAG the switch fluorescence ratio was 0.97 ± 0.024. CAGGAATATA showed a switch fluorescence ratio of 1.014 ± 0.0049. In the case of GCAGCGGGGG, the switch fluorescence ratio is reported as 1.01 ± 0.027. In the case of TACTCCAAGA, the switch fluorescence ratio is reported as 2.98 ± 1.1. TAAGGTGGTT gave a switch fluorescence ratio of 0.976 ± 0.034. TTTTATCTGA showed a switch fluorescence ratio of 1.02 ± 0.028. In the case of GGAGTGTTTC, the switch fluorescence ratio is reported as 1.01 ± 0.016. Sequence GAACTTGGTT has a switch fluorescence ratio of 1 ± 0.062. For TAAATTACTA, the switch fluorescence ratio was 1.05 ± 0.04. For AAAGTGGTTG, the switch fluorescence ratio was 0.984 ± 0.024. AGTGGCACTG gave a switch fluorescence ratio of 0.996 ± 0.0088. In the case of GCTTTCGATG, the switch fluorescence ratio is reported as 1.02 ± 0.02. Sequence CGAATTGTTT has a switch fluorescence ratio of 0.962 ± 0.03. GGGTGGACCT was tested, and the switch fluorescence ratio was 1.13 ± 0.048. ATTAGTTCCG showed a switch fluorescence ratio of 0.9814 ± 0.0025. CCTTCGGAGT gave a switch fluorescence ratio of 3.99 ± 2.3. TCGGGGTAAG was tested, and the switch fluorescence ratio was 1.03 ± 0.015. With TCACGTTGGG the switch fluorescence ratio was 0.9989 ± 0.0094. In the case of AGTTTGCTCG, the switch fluorescence ratio is reported as 0.971 ± 0.093. TGGGGTTGAC showed a switch fluorescence ratio of 0.9697 ± 0.0034. For ACTCGGTGGG, the switch fluorescence ratio was 1.01 ± 0.035. AGAAAATAGA was tested, and the switch fluorescence ratio was 0.9789 ± 0.0084. TTTGAATTTG was tested, and the switch fluorescence ratio was 0.974 ± 0.023. In the case of GGTCCTTGTT, the switch fluorescence ratio is reported as 1.005 ± 0.0018. TTAAGTTGAT showed a switch fluorescence ratio of 0.988 ± 0.033. Work on GTTATCGTGC yielded a switch fluorescence ratio of 0.992 ± 0.059. TTAAGTACGG gave a switch fluorescence ratio of 1.3 ± 0.016. Work on GGGGGAGTAA yielded a switch fluorescence ratio of 1.05 ± 0.15. For CAATTTTGGT, the switch fluorescence ratio was 1.01 ± 0.031. Sequence GATGTATTTT has a switch fluorescence ratio of 0.9823 ± 0.004. In the case of CATTGAGTGC, the switch fluorescence ratio is reported as 1.034 ± 0.0017. In the case of CGGATAGGTT, the switch fluorescence ratio is reported as 1.01 ± 0.017. ATGTCCCGGT showed a switch fluorescence ratio of 0.974 ± 0.025. ACGGGATTAA was tested, and the switch fluorescence ratio was 1.04 ± 0.051. Sequence TATTTTGGCC has a switch fluorescence ratio of 1.02 ± 0.04. ACCGTTTTTT was tested, and the switch fluorescence ratio was 1 ± 0.017. ATTTTTACTT was tested, and the switch fluorescence ratio was 0.974 ± 0.032. GGGCTTGGCT gave a switch fluorescence ratio of 0.9851 ± 0.0065. TTAAACCCAC showed a switch fluorescence ratio of 1.35 ± 0.023. With TTAAGTGAC the switch fluorescence ratio was 1.06 ± 0.028. For GTGACCCCTA, the switch fluorescence ratio was 1.13 ± 0.063. For TTAAAATAGA, the switch fluorescence ratio was 1.07 ± 0.1. In the case of TGGGGGATTA, the switch fluorescence ratio is reported as 0.999 ± 0.021. For CGAAAGAGAG, the switch fluorescence ratio was 0.9911 ± 0.0022. With AGAGCTGGGA the switch fluorescence ratio was 0.965 ± 0.015. CAGATTTTTT was tested, and the switch fluorescence ratio was 0.982 ± 0.028. CGCCGGGTTT was tested, and the switch fluorescence ratio was 1.02 ± 0.018. For AGGAAGATCC, the switch fluorescence ratio was 1.002 ± 0.0083. In the case of GATGTCCACG, the switch fluorescence ratio is reported as 0.9874 ± 0.0051. Work on TTTGAGACGT yielded a switch fluorescence ratio of 1.02 ± 0.041.
